According to patent publication US10987431B2, “Preparation method of adiposomes, and use thereof” (Institute Of Biophysics, Chinese Academy Of Sciences, priority 2015, dated 2021):

Tests used:
[1] = tested on: adiposome a; assay: Recruitment of resident proteins, functional proteins and apolipoprotein to adiposomes (SDS-PAGE, silver staining); type: binding
Protocol: a1, 5 μg SMT3-Perilipin-2 proteins, 25 ng Ulp1 and 500 adiposome a prepared in Example 1 were mixed to obtain 1000 mixed system.
a2, After the step a1 was completed, a mixed system was obtained by incubating at room temperature for 1 h (the practical operation may be performed on ice).
a3, After the step a2 was completed, the mixed system was taken to centrifuge at 20000 g for 5 min, and the liquid phase system presented two layers (the upper layer was adiposomes). The lower solution was drawn out and the upper layer was kept.
a4, The upper layer after the step a3 was resuspended into 1000 buffer B and centrifuged at 20000 g for 5 min, and the liquid phase system presented two layers (the upper layer was adiposomes). The lower solution was drawn out and the upper layer was kept.
a5, The upper layer after the step a4 was resuspended into 1000 buffer B and centrifuged at 20000 g for 5 min, and the liquid phase system presented two layers. The lower solution was drawn out and the upper layer was kept (i.e., adiposomes).
5 μg SMT3-Perilipin-2 proteins, adiposomes obtained in the step a5 and the lower solution drawn in the step a3 were all subjected to SDS-PAGE, followed by silver staining detection.
b1, 5 μg MLDS proteins and 50 μl adiposome a prepared in Example 1 were mixed to obtain 1000 mixed system.
b2, After the step b1 was completed, a mixed system was obtained by incubating at room temperature for 1 h (the practical operation may be performed on ice).
b3, After the step b2 was completed, the mixed system was taken to centrifuge at 20000 g for 5 min, and the liquid phase system presented two layers (the upper layer was adiposomes). The lower solution was drawn out and the upper layer was kept.
b4, The upper layer after the step b3 was resuspended into 1000 buffer B and centrifuged at 20000 g for 5 min, and the liquid phase system presented two layers (the upper layer was adiposomes). The lower solution was drawn out and the upper layer was kept.
b5, The upper layer after the step b4 was resuspended into 1000 buffer B and centrifuged at 20000 g for 5 min, and the liquid phase system presented two layers. The lower solution was drawn out and the upper layer was kept (i.e., adiposomes).
5 μg MLDS proteins, adiposomes obtained in the step b5 and the lower solution drawn in the step b3 were all subjected to SDS-PAGE, followed by silver staining detection.
The MLDS proteins in the step (2) were replaced with MDT-28 proteins, without other changes in other steps. The results were seen from lanes 4, 5 and 6 in FIG. 6 (lane 4 was total proteins (MDT-28 proteins), lane 5 was adiposome recruited proteins, and lane 6 was solution proteins). […] The adiposomes recruited with MDT-28 proteins were named as artificial lipid droplet MDT-28.
The MLDS proteins in the step (2) were replaced with Bovine serum albumin, without other changes in other steps. The results were seen from lanes 11, 12 and 13 in FIG. 6 (lane 11 was total proteins (Bovine serum albumin), lane 12 was adiposome recruited proteins, and lane 13 was solution proteins).
SMT3-Perilipin-2 proteins in the (1) of step 1 were replaced with SMT3-ATGL proteins, and 50 μl adiposome a was replaced with 30 μl adiposome a, without other changes in other steps, to obtain adiposomes recruited with ATGL.
5 μg MLDS proteins in the (2) of step 1 were replaced with 9 μg Apo A-I, without other changes in other steps, to obtain adiposomes recruited with Apo A-I. The results were seen from B in FIG. 10 (lane 1 was adiposome recruited proteins, lane 2 was solution proteins, and lane 3 was total proteins (Apo A-I)). […] The adiposome recruited with Apo A-I was named as artificial lipoprotein Apo A-I.

[2] = tested on: adiposome a; assay: Determination of protein saturation degree on adiposomes; type: binding; details: Western blot
Protocol: Determination of protein saturation degree: SMT3-Perilipin-2 proteins, 25 ng Ulp1 and 30 μl adiposome a prepared in Example 1 were mixed to obtain 50 μl mixed system, and the concentrations of SMT3-Perilipin-2 proteins in the mixed system were 0.015 μg/μl, 0.030 μg/μl, 0.056 μg/μl, 0.080 μg/μl, 0.101 μg/μl, 0.137 μg/μl, 0.166 μg/μl or 0.191 μg/μl. Then, artificial lipid droplets were obtained according to the above steps a2 to a5, and were subjected to SDS-PAGE, followed by staining with colloid blue, or were subjected to Western blot detection using Perilipin-2 antibody as primary antibody. The results were seen from C in FIG. 7 (in which a was the result of colloid blue staining, b was the result of Western blot detection).
Determination of protein saturation degree: SMT3-ATGL proteins, and 500 adiposome a prepared in Example 1 were mixed to obtain 1000 mixed system, and the concentrations of SMT3-ATGL proteins in the mixed system were 0.091 μg/μl, 0.132 μg/μl, 0.171 μg/μl, 0.209 μg/μl, 0.244 μg/μl, 0.278 μg/μl or 0.310 μg/μl. Then artificial lipid droplets were obtained according to the a2 to a5 of step 1, and were subjected to SDS-PAGE, followed by silver staining, or were subjected to Western blot detection using ATGL antibody (Cell Signaling Technology, Danvers, Mass., the product item: 2138) as primary antibody. […]

[3] = incubating at room temperature for 1 h, SDS-PAGE, silver staining

| Molecule | proteins recruited to adiposome a [1, 3] | further results |
| --- | --- | --- |
| Bovine serum albumin: purchased from Sigma, product item A4612; control protein [reference compound] | – | recruitment to adiposome a (in words) [1, 3]: no Bovine serum albumin was recruited |
| Apo A-I: apolipoprotein A1 from human, purified per Peitsch et al. 1989 | about 50% | – |
| Perilipin-2 proteins: lipid droplet resident protein of mammals, SEQ ID NO: 6, expressed with SMT3 tag cleaved by Ulp1 (protein, Perilipin-2 protein) MASVAVDPQPSVVTRVVNLPLVSSTYDLMSSAYLSTKDQYPYLKSVCEMAENGVKTITSVAMTSALPIIQKLEPQIAVANTYACKGLDRIEERLPILNQPSTQIVANAKGAVTGAKDAVTTTVTGAKDSVASTITGVMDKTKGAVTGSVEKTKSVVSGSINTVLGSRMMQLVSSGVENALTKSELLVEQYLPLTEEELEKEAKKVEGFDLVQKPSYYVRLGSLSTKLHSRAYQQALSRVKEAKQKSQQTISQLHSTVHLIEFARKNVYSANQKIQDAQDKLYLSWVEWKRSIGYDDTDESHCAEHIESRTLAIARNLTQQLQTTCHTLLSNIQGVPQNIQDQAKHMGVMAGDIYSVFRNAASFKEVSDSLLTSSKGQLQKMKESLDDVMDYLVNNTPLNWLVGPFYPQLTESQNAQDQGAEMDKSSQETQRSEHKTH | about 50% | recruitment on adiposomes, saturation (in words) ([2]; 0.015-0.191 μg/μl SMT3-Perilipin-2 proteins, colloid blue staining): saturable |
| MDT-28 proteins: nematode lipid droplet resident protein, SEQ ID NO: 4 (protein, MDT-28 protein) MTDVEQPVSVEDQQAQAQSYYDQVLGNAYVQTAINAYTKTKEFHPLLNSTLNSAEEKVSTVGNYAAQKAYDGYNSYYVKPKNTAYEAVSYGTERAKTAVESGKQAAIVGGTFGIGAAVVLTQFSLALSAGGAALVLEQVDSAKKLGSSAISTIKEAELAVEHRIFSALHQAQRIAMVPVEKITENTNSLLDILDGAVQKGLNIEVPPSVNLTIGQRVKNLASLIVQGVSNKLFKAHDHVIDPINERARNYLEQLSQSFVLLDIVREKKTWVIEKSNELSTSVFDFKKTLEEEAQKYKVAPEEMLMKHIQSTSEQLSTQLQSLREKGQNVFGDGTKIDSTIDYLENLKKNFTDAEDVYKVRDEVLNEGRQRIAELSTWTTSLLIISAEWQFEPEDLLIEELYFDAPPPVRTRNLYRNRA | about 90% | – |
| MLDS proteins: lipid droplet resident protein of oleaginous bacterium RHA1, SEQ ID NO: 2 (protein, MLDS protein) MTDQKTIDSVKTSLYAAVGAGDVVVQAVADVVAQVRSRAESTQGDVEERVGGAKERIAGLQEEVTEGVENLRDRLAGLPSELPEELAELREKFTADELRKVAEAYLKVASDLYTSLAERGEDTVERIRKQPVVEEGIGRAETAFGDAVELTEEALGTVARQTRAVGEQAAKLAGRASGRISDTAEGLGEAIADAGDEAALKVLDLGDQAEEASKDAADRVTATAADVQARADKAAPAKHAAPAKKAAPAKAAATPAPAPAKKAAAPAKKAAPAKKA | about 80% | – |
| ATGL: functional protein adipose triacylglycerol lipase, SEQ ID NO: 8 (protein, ATGL protein) MFPREKTWNISFAGCGFLGVYYVGVASCLREHAPFLVANATHIYGASAGALTATALVTGVCLGEAGAKFIEVSKEARKRFLGPLHPSFNLVKIIRSFLLKVLPADSHEHASGRLGISLTRVSDGENVIISHFNSKDELIQANVCSGFIPVYCGLIPPSLQGVRYVDGGISDNLPLYELKNTITVSPFSGESDICPQDSSTNIHELRVTNTSIQFNLRNLYRLSKALFPPEPLVLREMCKQGYRDGLRFLQRNGLLNRPNPLLALPPARPHGPEDKDQAVESAQAEDYSQLPGEDHILEHLPARLNEALLEACVEPTDLLTTLSNMLPVRLATAMMVPYTLPLESALSFTIRLLEWLPDVPEDIRWMKEQTGSICQYLVMRAKRKLGRHLPSRLPEQVELRRVQSLPSVPLSCAAYREALPGWMRNNLSLGDALAKWEECQRQLLLGLFCTNVAFPPEALRMRAPADPAPAPADPASPQHQLAGPAPLLSTPAPEARPVIGALGL | – | fraction of protein recruited to adiposome a ([1]; SMT3-ATGL proteins, 30 μl adiposome a, incubating at normal temperature or 4° C.): about ⅓; protein concentration in the reaction system at which recruitment on adiposomes reached saturation ([2]; 0.091-0.310 μg/μl SMT3-ATGL proteins, silver staining): 0.209 µg/µL |
